{"source": "paper PMC5389812", "about": "“Rv3634c from Mycobacterium tuberculosis H37Rv encodes an enzyme with UDP-Gal/Glc and UDP-GalNAc 4-epimerase activities” (PLoS ONE, 2017)", "molecular_target": "the molecule itself", "assay": "SEC; Superdex 200 16/600 GL column, FPLC buffer (20 mM Tris pH 8.0, 100 mM NaCl); calibrated with conalbumin, ovalbumin, carbonic anhydrase, ribonuclease A and aprotinin; molecular weight from Kav"}
{"protein": "His-tagged Rv3634c (H3634), wild type, UDP-Gal/Glc and UDP-GalNAc 4-epimerase from Mycobacterium tuberculosis H37Rv (enzyme, the protein is called H3634 (His-tagged Rv3634c) in the size exclusion experiment; also called WT; WT H3634; not shown: His6, N-terminal, kept) MRALVTGAAGFIGSTLVDRLLADGHSVVGLDNFATGRATNLEHLADNSAHVFVEADIVTADLHAILEQHRPEVVFHLAAQIDVRRSVADPQFDAAVNVIGTVRLAEAARQTGVRKIVHTSSGGSIYGTPPEYPTPETAPTDPASPYAAGKVAGEIYLNTFRHLYGLDCSHIAPANVYGPRQDPHGEAGVVAIFAQALLSGKPTRVFGDGTNTRDYVFVDDVVDAFVRVSADVGGGLRFNIGTGKETSDRQLHSAVAAAVGGPDDPEFHPPRLGDLKRSCLDIGLAERVLGWRPQIELADGVRRTVEYFRHKHTD", "values": [{"measurement": "stoichiometry N", "result": 2}]}
